Source: patent US20110311550A1 (Scripps Research, published 2011)

Tests used:
Assay in all cases: ELISA, lectin-captured E1E2 lysate, Ab 1 ug/ml;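 note: E1E2 captured on Galanthus nivalis lectin-coated plates, bound antibody read out via HRP-linked secondary antibody with TMB colorimetric substrate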
[1] = biological target: E1E2 complex (H77) with E2 mutation L441A (HCV genotype 1a, isolate H77, UniProt P27958 192-383; P27958 384-746)
[2] = biological target: E1E2 complex (H77) with E2 mutation A642G (HCV genotype 1a, isolate H77, UniProt P27958 192-383; P27958 384-746)
[3] = biological target: E1E2 complex (H77) with E2 mutation P619A (HCV genotype 1a, isolate H77, UniProt P27958 192-383; P27958 384-746)

B1: N4 IgG (antibody, V domains shown)
VH: VQLLEQSGPEVKKPGDSLRISCKMSGDSLVTTWIGWVRQKPGQGLEWMGIINPGDSSTNIYPGDSATRYGPSFQGQVTISIDKSTSTAYLQWNNVKASDTGIYYCARHVPVPISGTFLWREREMHDFGYFDDWGQGTLVIVSS
VL: ELTLTQSPGTLSLSPGERATLSCRASQSVSNNYLAWYQQKPGQAPRLLIYGASSRATGIPDRFSGSGSGTGFTLIISRLEPEDFAVYYCQQYGSSSITFGQGTRLEIKR
notes: also called IgG N4
- Binding relative to wt (%) [1]: 18%
- Binding relative to wt (%) [2]: 65%
- Binding relative to wt (%) [3]: 41%
